Measurements: patent publication US12698507B2, “Methods and compositions for conferring and/or enhancing herbicide tolerance using protoporphyrinogen IX oxidase of various cyanobacteria or variant thereof” (FarmHannong Co., Ltd., priority 2019, dated 2026)

B1: CyPPO18 R89A + V165S + V305M + F360I: variant of CyPPO18 PPO protein (SEQ ID NO: 3) (protein)
chain: MIEVDVAIVGGGLSGLSVAWRLQRSAPHYSGVLLEASDRLGGNITTQAAEGFVWELGPNSFAPTPALLQLIAEVGLHSELIRGDRHLPAYIYWRGELYPLEPTRPLALATSNLLSPWGKVRAALGALGFVPPYLGSGDESVDSFFRRHLGQEVAERLVAPFVSGSYAGDPQQLSAAAAFRRIAQLEKLGGSLIAGALRLRRQQPPQPKPPAQVQMRPGELGSFREGLAALPRAIAQQLKAPLHLQTPVEAITPEPKGGYLLRSGEQTWHARSVVLATPAYQSAELVAPFQPAIARALATIPYPTMACVVLAYPAGLGRSVRPGFGVLVPRGQGIRTLGTIWSSCLFPQRTPAGWQVFTSIIGGATDPDLASLREEAIVEQVQQDLTRLLDLPAAKARLLGMKVWRRAIPQYIVGYPQQWQQLTHALTQTPGLFLCSNYAEGVALGDRVEHGNRTAAAVAAYLAGGQS
modifications: Synthetic_PPO of Thermosynechococcus vulcanus NIES-2134 (BAY51976)
B2: CyPPO19 R89A + A167I + F360V: variant of CyPPO19 PPO protein (SEQ ID NO: 1) (protein)
chain: MSEVDVAIVGGGLSGLSLAWRLQQSAPQYSVVLLEASDRLGGNITTQTAEGFVWELGPNSFAPTPALLQLIAEVGLQSELIRGDRHLPAYIYWRGQLYPLQPTRPLALATSNLLSPWGKVRAALGALGFVPPYLGSGDESVNSFFRRHLGQEVAERLVAPFVSGVYIGDPQQLSAAAAFRRIAQLEKLGGGLIAGALHLRRQQAPKPKPPTSVQMRPGELGSFKEGLAALPRAIAQQLKAPIHLQTPVQEITPDPKGGYLLRSGEQTWRARSVVLATPAYQTAELVAPFQPAIARVLATIPYPTVACVVLAYPAGLGRSVRPGFGVLIPRSQGIRTLGTIWSSCLFPQRTPAGWQVFTSVIGGATDPDLASLSEEAIVQQVQQDLNRLLDLPAAKARLLGMKVWRRAIPQYMVGYPEQWQQVTHALSQTPGLFLCSNYAEGVALGDRVEHGNRTAAAVAAYLSGGQP
modifications: Synthetic_PPO of Thermosynechococcus elongatus PKUAC-SCTE542 (comprising GenBank No. CP032152.1)
B3: CyPPO19 R89A + A167C + F360L: variant of CyPPO19 PPO protein (SEQ ID NO: 1) (protein)
chain: MSEVDVAIVGGGLSGLSLAWRLQQSAPQYSVVLLEASDRLGGNITTQTAEGFVWELGPNSFAPTPALLQLIAEVGLQSELIRGDRHLPAYIYWRGQLYPLQPTRPLALATSNLLSPWGKVRAALGALGFVPPYLGSGDESVNSFFRRHLGQEVAERLVAPFVSGVYCGDPQQLSAAAAFRRIAQLEKLGGGLIAGALHLRRQQAPKPKPPTSVQMRPGELGSFKEGLAALPRAIAQQLKAPIHLQTPVQEITPDPKGGYLLRSGEQTWRARSVVLATPAYQTAELVAPFQPAIARVLATIPYPTVACVVLAYPAGLGRSVRPGFGVLIPRSQGIRTLGTIWSSCLFPQRTPAGWQVFTSLIGGATDPDLASLSEEAIVQQVQQDLNRLLDLPAAKARLLGMKVWRRAIPQYMVGYPEQWQQVTHALSQTPGLFLCSNYAEGVALGDRVEHGNRTAAAVAAYLSGGQP
modifications: Synthetic_PPO of Thermosynechococcus elongatus PKUAC-SCTE542 (comprising GenBank No. CP032152.1)
B4: CyPPO19 R89A + A167L + F360T: variant of CyPPO19 PPO protein (SEQ ID NO: 1) (protein)
chain: MSEVDVAIVGGGLSGLSLAWRLQQSAPQYSVVLLEASDRLGGNITTQTAEGFVWELGPNSFAPTPALLQLIAEVGLQSELIRGDRHLPAYIYWRGQLYPLQPTRPLALATSNLLSPWGKVRAALGALGFVPPYLGSGDESVNSFFRRHLGQEVAERLVAPFVSGVYLGDPQQLSAAAAFRRIAQLEKLGGGLIAGALHLRRQQAPKPKPPTSVQMRPGELGSFKEGLAALPRAIAQQLKAPIHLQTPVQEITPDPKGGYLLRSGEQTWRARSVVLATPAYQTAELVAPFQPAIARVLATIPYPTVACVVLAYPAGLGRSVRPGFGVLIPRSQGIRTLGTIWSSCLFPQRTPAGWQVFTSTIGGATDPDLASLSEEAIVQQVQQDLNRLLDLPAAKARLLGMKVWRRAIPQYMVGYPEQWQQVTHALSQTPGLFLCSNYAEGVALGDRVEHGNRTAAAVAAYLSGGQP
modifications: Synthetic_PPO of Thermosynechococcus elongatus PKUAC-SCTE542 (comprising GenBank No. CP032152.1)
B5: CyPPO19 R89A + V305M + F360V: variant of CyPPO19 PPO protein (SEQ ID NO: 1) (protein)
chain: MSEVDVAIVGGGLSGLSLAWRLQQSAPQYSVVLLEASDRLGGNITTQTAEGFVWELGPNSFAPTPALLQLIAEVGLQSELIRGDRHLPAYIYWRGQLYPLQPTRPLALATSNLLSPWGKVRAALGALGFVPPYLGSGDESVNSFFRRHLGQEVAERLVAPFVSGVYAGDPQQLSAAAAFRRIAQLEKLGGGLIAGALHLRRQQAPKPKPPTSVQMRPGELGSFKEGLAALPRAIAQQLKAPIHLQTPVQEITPDPKGGYLLRSGEQTWRARSVVLATPAYQTAELVAPFQPAIARVLATIPYPTMACVVLAYPAGLGRSVRPGFGVLIPRSQGIRTLGTIWSSCLFPQRTPAGWQVFTSVIGGATDPDLASLSEEAIVQQVQQDLNRLLDLPAAKARLLGMKVWRRAIPQYMVGYPEQWQQVTHALSQTPGLFLCSNYAEGVALGDRVEHGNRTAAAVAAYLSGGQP
modifications: Synthetic_PPO of Thermosynechococcus elongatus PKUAC-SCTE542 (comprising GenBank No. CP032152.1)
B6: CyPPO19 R89A + V305M + F360I: variant of CyPPO19 PPO protein (SEQ ID NO: 1) (protein)
chain: MSEVDVAIVGGGLSGLSLAWRLQQSAPQYSVVLLEASDRLGGNITTQTAEGFVWELGPNSFAPTPALLQLIAEVGLQSELIRGDRHLPAYIYWRGQLYPLQPTRPLALATSNLLSPWGKVRAALGALGFVPPYLGSGDESVNSFFRRHLGQEVAERLVAPFVSGVYAGDPQQLSAAAAFRRIAQLEKLGGGLIAGALHLRRQQAPKPKPPTSVQMRPGELGSFKEGLAALPRAIAQQLKAPIHLQTPVQEITPDPKGGYLLRSGEQTWRARSVVLATPAYQTAELVAPFQPAIARVLATIPYPTMACVVLAYPAGLGRSVRPGFGVLIPRSQGIRTLGTIWSSCLFPQRTPAGWQVFTSIIGGATDPDLASLSEEAIVQQVQQDLNRLLDLPAAKARLLGMKVWRRAIPQYMVGYPEQWQQVTHALSQTPGLFLCSNYAEGVALGDRVEHGNRTAAAVAAYLSGGQP
modifications: Synthetic_PPO of Thermosynechococcus elongatus PKUAC-SCTE542 (comprising GenBank No. CP032152.1)

test system: PPO-deficient BT3 E. coli (ΔPPO); test: PPO-inhibiting herbicide tolerance test of PPO variants in E. coli (growth on herbicide-containing LB agar); assay type: cell-based; conditions: CyPPO18 variants in BT3 (ΔPPO) E. coli; LB agar with 0 to 2,000 μM herbicide, 37° C., dark, 16-20 hours
Procedure, shortened: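 PPO-deficient BT3 E. coli expressing each variant from pET303 were diluted to OD600=0.5, then 10-fold serially, and spotted on LB-ampicillin agar with 0 to 2,000 μM herbicide. After 16-20 h at 37° C. in the dark, growth relative to wild type was scored from '−' (equivalent) to '+' per 10-fold resistance, max '+++++'.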

| Molecule | tolerance level relative to wild type, Carfentrazone | tolerance level relative to wild type, Flumioxazin | tolerance level relative to wild type, Fomesafen | tolerance level relative to wild type, Oxyfluorfen | tolerance level relative to wild type, Saflufenacil | tolerance level relative to wild type, Sulfentrazone | tolerance level relative to wild type, Tiafenacil |
| --- | --- | --- | --- | --- | --- | --- | --- |
| B1 | ++ (‘+’ per each 10-fold resistance) | +++++ (until ‘+++++’ as maximal resistance) | +++++ (until ‘+++++’ as maximal resistance) | ++ (‘+’ per each 10-fold resistance) | +++++ (until ‘+++++’ as maximal resistance) | +++++ (until ‘+++++’ as maximal resistance) | +++++ (until ‘+++++’ as maximal resistance) |

same assay, conditions: CyPPO19 variants in BT3 (ΔPPO) E. coli; LB agar with 0 to 2,000 μM herbicide, 37° C., dark, 16-20 hours

| Molecule | tolerance level relative to wild type, Carfentrazone | tolerance level relative to wild type, Flumioxazin | tolerance level relative to wild type, Fomesafen | tolerance level relative to wild type, Oxyfluorfen | tolerance level relative to wild type, Saflufenacil | tolerance level relative to wild type, Sulfentrazone | tolerance level relative to wild type, Tiafenacil |
| --- | --- | --- | --- | --- | --- | --- | --- |
| B2 | + (‘+’ per each 10-fold resistance) | +++++ (until ‘+++++’ as maximal resistance) | +++ (‘+’ per each 10-fold resistance) | +++ (‘+’ per each 10-fold resistance) | +++++ (until ‘+++++’ as maximal resistance) | +++++ (until ‘+++++’ as maximal resistance) | +++++ (until ‘+++++’ as maximal resistance) |
| B3 | ++ (‘+’ per each 10-fold resistance) | ++++ (‘+’ per each 10-fold resistance) | ++ (‘+’ per each 10-fold resistance) | +++ (‘+’ per each 10-fold resistance) | ++++ (‘+’ per each 10-fold resistance) | ++++ (‘+’ per each 10-fold resistance) | ++++ (‘+’ per each 10-fold resistance) |
| B4 | ++ (‘+’ per each 10-fold resistance) | ++++ (‘+’ per each 10-fold resistance) | ++ (‘+’ per each 10-fold resistance) | ++ (‘+’ per each 10-fold resistance) | ++++ (‘+’ per each 10-fold resistance) | +++ (‘+’ per each 10-fold resistance) | ++++ (‘+’ per each 10-fold resistance) |
| B5 | + (‘+’ per each 10-fold resistance) | +++ (‘+’ per each 10-fold resistance) | + (‘+’ per each 10-fold resistance) | + (‘+’ per each 10-fold resistance) | +++ (‘+’ per each 10-fold resistance) | ++ (‘+’ per each 10-fold resistance) | +++ (‘+’ per each 10-fold resistance) |
| B6 | + (‘+’ per each 10-fold resistance) | +++ (‘+’ per each 10-fold resistance) | + (‘+’ per each 10-fold resistance) | + (‘+’ per each 10-fold resistance) | +++ (‘+’ per each 10-fold resistance) | ++ (‘+’ per each 10-fold resistance) | +++ (‘+’ per each 10-fold resistance) |
